This assay concerns the target West Nile virus strain USA99b (strain 385-99), whole virus (West Nile virus strain 385-99 (USA99b)). Nature of the assay: ELISA on irradiated WNV; antibody at 20.000 µg/ml. Background: An ELISA detects its analyte on a solid surface through an enzyme-linked reagent.

The substance “anti-rabies virus antibody (negative control)” yielded an OD 492nm of 0.051 OD 492nm.

These data come from patent EP1828247B1.
